The values that follow come from article PMC4234207.

In one series the target is T1, GST-FKH-FoxA2 (Rattus norvegicus (rat; cloned from genomic DNA)) (UniProt P32182).
T1 sequence (P32182 145-290, looked up): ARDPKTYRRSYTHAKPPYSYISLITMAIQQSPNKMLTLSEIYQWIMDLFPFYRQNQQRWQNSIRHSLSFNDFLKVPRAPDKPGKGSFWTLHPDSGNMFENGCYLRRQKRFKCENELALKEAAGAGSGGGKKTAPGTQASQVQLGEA
Kind of series: competition EMSA. To be noted: 25 mM HEPES pH 7.6, 150 mM KCl, 0.2 mM EDTA, 0.2 mM EGTA, 10% glycerol, 1 mM DTT, 3 ug protein, 1 ng 32P-TTR probe, 2/5/20 ng competitor, on ice 15 min; 4% ….
“CAGTCCCTTCCCTTATTTACATTCCCGAGA (double strand) [FoxA BS chr7:140707466 a]” returned a binding signal (EMSA score (TTR=1)) of 1.13.
Regarding “CAGTCCAGACTCGCTTGTTGACAGAGCTCAGGGC (double strand) [FoxA BS chr12:77880754 a]”, the binding signal (EMSA score (TTR=1)) amounted to 0.38.
On the same count and under the same terms, next, “CAGTAAACTCTGCTGTGTGTACAGATAACATTAC (double strand) [non-site chr7:119551431]”: 0.22; “CAGTGACAACCAATGTTGACTTAAAACCTT (double strand) [FoxA BS chr4:61847631]”: 0.82.
In the case of “CAGTGGACCTTATTTACTTTCCTTAGCAAG (double strand) [FoxA BS chr12:85340663 a]”, the binding signal (EMSA score (TTR=1)) was 0.99.

Another series has as its target T1, GST-FKH-FoxA2 (Rattus norvegicus (rat; cloned from genomic DNA)). The series is described as follows: EMSA and self-competition. To be noted: reference probe; 25 mM HEPES pH 7.6, 150 mM KCl, 0.2 mM EDTA, 0.2 mM EGTA, 10% glycerol, 1 mM DTT, 3 ug protein, 1 ng 32P-TTR probe, 2/5/20 ng competitor, on ice 15 min; 4% …. (A gel shift assay detects complexes by their altered migration in electrophoresis.)
“CAGTCGAGTTGACTAAGTCAATAATCAGAATCAGTCG (double strand) [TTR]” showed a binding signal (EMSA score (TTR=1)) of 1.
